# The DeepSol protein solubility set
# Assay: soluble on expression in E. coli; label from the status in PepcDB or PDB records
row,Sequence,soluble on expression in E. coli
1,MRDWVIPPISCPENEKGEFPKNLVQIKSNRDKETKVFYSITGQGADKPPVGVFIIERETGWLKVTQPLDREAIAKYILYSHAVSSNGEAVEDPMEIVITVTDQNDNRPEFTQEVFEGSVAEGAVPGTSVMKVSATDADDDVNTYNAAIAYTIVSQDPELPHKNMFTVNRDTGVISVLTSGLDRESYPTYTLVVQAADLQGEGLSTTAKAVITVKDINDNAPVFNPS,soluble
2,MREIVHVQAGQCGNQIGAKFWEVISDEHGIQPDGTYKGESDLQLERINVYYNEANGGKYVPRAVLVDLEPGTMDSVRSGPFGQLFRPDNFVFGQSGAGNNWAKGHYTEGAELVDNVLDVVRKEAEGCDCLQGFQLTHSLGGGTGSGMGTLLISKIREEYPDRIMSSFSVVPSPKVSDTVVEPYNATLSVHQLVENTDETFCIDNEALYDICFRTLKLSNPTYGDLNHLVSVTMSGVTTCLRFPGQLNADLRKLAVNMVPFPRLHFFMPGFAPLSAKGAQAYRALTVAELTQQMFDAKNMMAACDPRHGRYLTVAAMFRGRMSMREVDDQMMNVQNKNSSYFVEWIPNNVKTAVCDIPPRGLKMSATFIGNSTAIQELFKRISEQFTAMFRRKAFLHWYTGEGMDEMEFTEAESNMNDLVSEYQQYQEATAEEDGELDGTDGDAE,not soluble
3,MRERKKYGKHIPKSLSSKINKRKLIQKNICTNYKTIKIIDIYENLPYNQLNNGRTKIKEIILANDVLVVLLISGISRAYNMINGEFLCEINPNNFSVVHTIVYNSYNNTLIIAYASFPAHLQCKVIDCNDLKHGITNSSKLGILFGT,not soluble
4,MRFGEGSAKPIVSAATYGVGGNAFAQAIADPVSTVHSNKPELLVVDGYNVIHCTPRYEKLVYDHSDDPYSSDVHDMARTALINDVAAFAQGRYEAVIVFDGAGNISSERPNLPARGVRIEFSPTGVSADTVVQKLCIEAREEGRACSVVSSDGTIQAVVMGKGVTRISSRMLVDEIKQIDNDVHEAEEAPQIKMTLEHHHHHH,soluble
5,MRFLTAGESHGPELLAIIEGLPAGLPLSEEDINPWLEKRQKGYGRGRRMVIERDRVEFRAGVRGGRTTGAPVALAIKNADFKNWAEIMDPAPGNWPRKRALTAARPGHADLAGGMKYGHKDLRDVLERASARETAMRVAVGAVALKLLSLLGVEGVGYVPGMAGVWAKVPFSWDLVPRIEESPLRMTDPEAEAEAIRRIDQAKAEGDTLGGIIEARFRGLVPGLGSHVHWDRKLDGRLAQMALSIPAVKGVEIGPAFENAMKRGSEVHDAIYWSPERGFYRKTNRAGGLEGGMTTGEELVVRAALKPIATLMKPLPTVDVVTHEPKDAARERSDTTAVPAASVILCALSAIVLAQAYLEKFGGDTMEEIQERVERYRERVRAY,soluble
6,MRGEKRTFEMLTNEVEYQHYRFSFANNPATAAGIFQLAEIELTVVADAPLVDFASNISRAEIGENVQFWDRSLANPTGWQWTFEDGEPATSTNRNPAVTFTSLGAKSVTLVASNDKGSNEKVQEQVVHIWDSQNPWAGYVKPTVTLVAHKPEHEGQIAFSRVMPDIEAVIHDISLQIVKVLYKDVAEAPLFKTVTFETDEYDFPAAKSGTDEDMILMMDVAHLANKAAEGDDALRDEVIGMLWHELTHGYNNSPNSGEYATGDEYHSYLESLANYMRIKAGFHESRRVGIKWVDNWNVDAYEQTSFFLEWVANSHRSVDFIYLFNKAAGDLKEWSFEAAFKSIFGEDKGVSIFWQEYHDAQGIEPPYPTPVDGYRNFAVDEGVSISTNATTVIIPDWDAYEGEDKLIDNNVTKKFNAFIEGTWWLEEHASHLFPINDITNVEVTFELPDAIVLHKYSVTTGNDNPQRDPTLWTISGSVDGEVWTQLDSDNYPSDPERLITFHYDIDDAVTAYKYYQFVFENTQPAGDSIGGDNGRLVQIGEIALLTEELEHHHHHH,not soluble
7,MRGRQKIAIVGAGLGGAAAATLLQQAGFDVEVFEQAPAFTRLGAGIHIGPNVMKIFRRMGLEQKLELMGSHPDFWFSRDGNTGDYLSRIPLGEFARREYGAAYITIHRGDLHALQIEAIQPGTVHFGKRLEKIVDEGDQVRLDFADGTHTVADIVIGADGIHSKIREELLGAEAPIYSGWVAHRALIRGVNLAQHADVFEPCVKWWSEDRHMMVYYTTGKRDEYYFVTGVPHEAWDFQGAFVDSSQEEMRAAFEGYHPTVQKLIDATESITKWPLRNRNPLPLWSRGRLVLLGDACHPMKPHMAQGACMAIEDAAMLTRCLQETGLSDHRTAFALYEANRKERASQVQSVSNANTWLYSQEDPAWVYGYDLYGQQLESGEAALEHHHHHH,soluble
8,MRGSHHHHHHGIRMRARYPAFSVNYDSSFGGYSIHDYLGQWASTFGDVNHTNGNVTDANSGGFYGGSLSGSQYAISSTANQVTAFVAGGNLTYTLFNEPAHTLYGQLDSLSFGDGLSGGDTSPYSIQVPDVSFGGLNLSSLQAQGHDGVVHQVVYGLMSGDTGALETALNGILDDYGLSVNSTFDQVAAATAVGVQHADSPELLAA,soluble
9,MRGSHHHHHHGMTIFEKKPDFTLFLQTLSWEIDDQVGIEVRNELLREVGRGMGTRIMPPPCQTVDKLQIELNALLALIGWGTVTLELLSEDQSLRIVHENLPQVGSAGEPSGTWLAPVLEGLYGRWVTSQAGAFGDYVVTRDVDAEDLNAVPRQTIIMYMRVRSSAT,soluble
10,MRGSHHHHHHGSDLGKKLLEAARAGQDDEVRILIANGADVNAVDNTGLTPLHLAAVSGHLEIVEVLLKHGADVDAADVYGFTPLHLAAMTGHLEIVEVLLKYGADVNAFDMTGSTPLHLAADEGHLEIVEVLLKYGADVNAQDKFGKTAFDISIDNGNEDLAKSCRN,soluble
11,MRGSHHHHHHGSLMPGGKEFYNFYPEYVVGLQWMGDNYVFIEGDDLVFNKANGKSAQTTRFSAADLNALMPEGCKFQTTDAFPSFRTLDAGRGLVVLFTQGGLVGFDMLARKVTYLFDTNEETASLDFSPVGDRVAYVRNHNLYIARGGKLGEGMSRAIAVTIDGTETLVYGQAVHQREFGIEKGTFWSPKGSCLAFYRMDQSMVKPTPIVDYHPLEAESKPLYYPMAGTPSHHVTVGIYHLATGKTVYLQTGEPKEKFLTNLSWSPDENILYVAEVNRAQNECKVNAYDAETGRFVRTLFVETDKHYVEPLHPLTFLPGSNNQFIWQSRRDGWNHLYLYDTTGRLIRQVTKGEWEVTNFAGFDPKGTRLYFESTEASPLERHFYCIDIKGGKTKDLTPESGMHRTQLSPDGSAIIDIFQSPTVPRKVTVTNIGKGSHTLLEAKNPDTGYAMPEIRTGTIMAADGQTPLYYKLTMPLHFDPAKKYPVIVYVYGGPHAQLVTKTWRSSVGGWDIYMAQKGYAVFTVDSRGSANRGAAFEQVIHRRLGQTEMADQMCGVDFLKSQSWVDADRIGVHGWAYGGFMTTNLMLTHGDVFKVGVAGGPVIDWNRYEIMYGERYFDAPQENPEGYDAANLLKRAGDLKGRLMLIHGAIDPVVVWQHSLLFLDACVKARTYPDYYVYPSHEHNVMGPDRVHLYETITRYFTDHL,soluble
12,MRGSHHHHHHGSLVPRGSMVAADAPAAGTDITNQLTNVTVGIDSGTTVYPHQAGYVKLNYGFSVPNSAVKGDTFKITVPKELNLNGVTSTAKVPPIMAGDQVLANGVIDSDGNVIYTFTDYVNTKDDVKATLTMPAYIDPENVKKTGNVTLATGIGSTTANKTVLVDYEKYGKFYNLSIKGTIDQIDKTNNTYRQTIYVNPSGDNVIAPVLTGNLKPNTDSNALIDQQNTSIKVYKVDNAADLSESYFVNPENFEDVTNSVNITFPNPNQYKVEFNTPDDQITTPYIVVVNGHIDPNSKGDLALRSTLYGYNSNIIWRSMSWDNEVAFNNGSGSGDGIDKPVVPEQPDEPGEIEPIPEK,soluble
13,MRGSHHHHHHGSMKRAVITGLGIVSSIGNNQQEVLASLREGRSGITFSQELKDSGMRSHVWGNVKLDTTGLIDRKVVRFMSDASIYAFLSMEQAIADAGLSPEAYQNNPRVGLIAGSGGGSPRFQVFGADAMRGPRGLKAVGPYVVTKAMASGVSACLATPFKIHGVNYSISSACATSAHCIGNAVEQIQLGKQDIVFAGGGEELCWEMACEFDAMGALSTKYNDTPEKASRTYDAHRDGFVIAGGGGMVVVEELEHALARGAHIYAEIVGYGATSDGADMVAPSGEGAVRCMKMAMHGVDTPIDYLNSEGTSTPVGDVKELAAIREVFGDKSPAISATKAMTGHSLGAAGVQEAIYSLLMLEHGFIAPSINIEELDEQAAGLNIVTETTDRELTTVMSNSFGFGGTNATLVMRKLKD,soluble
14,MRGSHHHHHHGSVIFDKRIKDEEDVEKELGLPVLGSIQKFNMTNTRRSTSSLIVHEQPKSPISEKFRGIRSNIMFANPDSAVQSIVITSEAPGAGMSTIAANLAVAYAQAGYKTLIVDGDMRKPTQHYIFNLPNNEGLSSLLLNWSTYQDSIISTEIEDLDVLTSGPIPPNPSELITSRAFANLYDTLLMNYNFVIIDTPPVNTVTDAQLFSKFTGNVVYVVNSENNNKDEVKKGKELIEATGAKLLGVVLNRMPKDKSASYYAYYGTDES,soluble
15,MRGSHHHHHHTDPALRAPKSVIIPAGSSAPLAPFVPGTLADGVVYVSGTLAFDQHNNVLFADDPKAQTRHVLETIRKVIETAGGTMADVTFNSIFITDWKNYAAINEIYAEFFPGDKPARFCIQCGLVKPDALVEIATIAHIAKGLCGR,soluble
16,MRGSHHHHHHTDPALRASSFQFEQIGVIRSPYKEKFAVPRQPGLVKSANGELHLIAPYNQADAVRGLEAFSHLWILFVFHQTMEGGWRPTVRPPRLGGNARMGVFATRSTFRPNPIGMSLVELKEVVCHKDSVILKLGSLDLVDGTPVVDIKPYLPFAESLPDASASYAQSAPAAEMAVSFTAEVEKQLLTLEKRYPQLTLFIREVLAQDPRPAYRKGEETGKTYAVWLHDFNVRWRVTDAGFEVFALEPRGLCGR,soluble
17,MRHREWSRATEGDRTMATTIATLTQKTDGILEGVFATIRVNAPIAIIPNASKSSEEAPDYRVIHRKTGFEIGAGWNRIARQTGEEYLSVKLEAPEIGVIFGNLAPAPGGDPSKKVILWNNPD,not soluble
18,MRIAVASGKGGTGKTTVAVNLAVFNHIDLFDLDVEEPNDRIFIKGEAEEWPAYRKVPEVRENCNACGVCKDVCQYSAIYVIDKAYPLPELCHSCGACIYLCPEKAMEEVDYQTGKIVRVKSDITLTYGEMRIGEASAVFLIKQVKELMGKNAIIDSPPGASCPMVESVSDADYVILVAEPTPFGLHDLKIAAEVVSDLGLKFGVVVNKHGLPFDGIERYCKEGGVEILGKIPFSKEIAEKYSRGELLHDMKDFFVQLYEGIALEHHHHHH,soluble
19,MRIDILTLFPGMFSGVLSESILKKAQEKGAVDIRLIDFREFADNKHKTVDDYPYGGGAGMVLKPQPIFDAVEHVTAGSPGARIILLCPQGERYTQKKAEELAKETHLVLICGHYEGYDERIRQYLATDEISIGDYILTGGELGAMVIVDSVVRLLPGVLGNEASPVDDSFSSGLLEYPQYTRPADFRGMKVPDILLSGNHQLIAEWREKESLRRTFLRRPDLLDEYPLTDKQKQWLKEWEKERE,soluble
20,MRIIKFPEQISEDIIHYTFLDDIISYNCEKCRGSCCHVNNSLLLDAKTASFLKRTYLKDFIVSDDSVSLLSCGKKCWFHSELGCTINDLGLNKPLTCELYPFHIKKIQNFYIVSFTPCPTFQLNLGEGQRYKDIEDVVLRYIKTGVPVFSPSLHVSEERLKYEIEYQNNFKNTLSEYYRTKTADGTTEFKEYEKWYIYYLDFRWGSIPLSYTSSQANQFWNLYKRVCEDVYKKISYIRTDNIYFIIANQFNKTISKHFQLNFIDKE,soluble
21,MRILDYDKVIERILEFIREKGNNGVVIGISGGVDSATVAYLATKALGKEKVLGLIMPYFENKDVEDAKLVAEKLGIGYKVINIKPIVDSFVENLELNLDRKGLGNIMSRTRMIMLYAHANSLGRIVLGTSNRSEFLTGYFTKWGDGASDYAPIINLYKTEVWEIAKRIGVPERIVKKKPSAGLWEGQTDEDELGISYNLLDEILWRMIDLKIGKEEIAKDLGIPLSLVERVEELIKKSEHKRRLPIGPSFEDLIVGP,soluble
